Results from PMC5552852, “Structural basis for Ccd1 auto-inhibition in the Wnt pathway through homomerization of the DIX domain” (Scientific Reports, 2017).
Each block holds one molecule with its values, some of them ahead of it.

Legend:
[1] = biological target: mCcd1 DIX domain D399A (mouse)
[2] = biological target: mCcd1 DIX domain L402A (mouse)
[3] = biological target: mCcd1 DIX domain R400A (mouse)
[4] = biological target: the molecule itself; assay: SEC; gel filtration chromatography of the DIX domains without carrier (Figures 1b and 4e)
MBP-fused zCcd1 DIX = biological target: T1, MBP-fused zCcd1 DIX (zebrafish, UniProt Q804T6 356-438); assay: pull-down; MBP-fused mCcd1, zCcd1 or Dvl1 DIX (0.8 mM) held on amylose resin, Axin DIX or Dvl1 DIX free; pull-down buffer, 277 K (Figures 5f, 5g); details: both partners purified
T1 construct: DIX domain of zebrafish Ccd1, cDNA Gene ID 360137; The uncleaved precursor of m2; also called MBP-fused zCcd1 DIX domain; source: E. coli (plasmid pOPINM), purified (amylose resin)
T1 sequence (looked up): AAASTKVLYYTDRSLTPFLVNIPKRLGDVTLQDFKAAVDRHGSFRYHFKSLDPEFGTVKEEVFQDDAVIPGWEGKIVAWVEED

mCcd1 DIX domain L402A = biological target: T2, mCcd1 DIX domain L402A; assay: dynamic light scattering; details: chain shown with the change;; parent: est. 4.4; read off a plot
T2 chain: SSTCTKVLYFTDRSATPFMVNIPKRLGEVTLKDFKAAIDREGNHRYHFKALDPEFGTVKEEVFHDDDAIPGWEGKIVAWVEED

mCcd1 DIX domain F397A = biological target: T3, mCcd1 DIX domain F397A; assay: dynamic light scattering; details: chain shown with the change;; parent: est. 4.4; read off a plot
T3 chain: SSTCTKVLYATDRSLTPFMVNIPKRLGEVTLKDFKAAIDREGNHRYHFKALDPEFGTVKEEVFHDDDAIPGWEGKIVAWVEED

mCcd1 DIX domain W466A = biological target: T4, mCcd1 DIX domain W466A; assay: dynamic light scattering; details: chain shown with the change;; parent: est. 4.4; read off a plot
T4 chain: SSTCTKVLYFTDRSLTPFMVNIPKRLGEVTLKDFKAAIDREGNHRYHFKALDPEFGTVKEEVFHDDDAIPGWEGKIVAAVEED

- TCF-dependent transcription (TOPflash luciferase reporter, HeLa cells transfected with FLAG-tagged mCcd1 BalphaL D399A), compared to the wild type [1]: 1.3 fold
Molecule: mCcd1 DIX domain D399A (domain or fragment)

- TCF-dependent transcription (TOPflash luciferase reporter, HeLa cells transfected with FLAG-tagged mCcd1 BalphaL L402A), compared to the wild type [2]: 1.5 fold
Molecule: mCcd1 DIX domain L402A (domain or fragment)

- TCF-dependent transcription (TOPflash luciferase reporter, HeLa cells transfected with FLAG-tagged mCcd1 BalphaL R400A), compared to the wild type [3]: 1.4 fold
Molecule: mCcd1 DIX domain R400A (domain or fragment)

B1: zebrafish Coiled-coil-DIX1 (zCcd1) DIX domain (domain or fragment, UniProt Q804T6 356-438, looked up)
chain: AAASTKVLYYTDRSLTPFLVNIPKRLGDVTLQDFKAAVDRHGSFRYHFKSLDPEFGTVKEEVFQDDAVIPGWEGKIVAWVEED
notes: DIX domain of zebrafish Coiled-coil-DIX1 (zCcd1), residues 356-438, cDNA Gene ID 360137; also called zCcd DIX domain; Zebrafish CCD1; source: E. coli (plasmid pOPINM), purified (amylose resin, HRV3C cleavage, HiTrap Q)
- stoichiometry N [4]: 2

- fold binding relative to MBP-fused mCcd1 DIX (MBP-fused zCcd1 DIX): 1.53 fold
B2: Axin DIX domain (domain or fragment, UniProt O70239 745-827, looked up)
chain: CDSIVVAYYFCGEPIPYRTLVRGRAVTLGQFKELLTKKGSYRYYFKKVSDEFDCGVVFEEVREDEAILPVFEEKIIGKVEKVD
notes: DIX domain of Axin; source: E. coli, expressed as a fusion construct with GST or MBP, purified

- other: DLS peak size (diameter) of homopolymer (mCcd1 DIX domain L402A): 7.3 nm
B3: mouse Coiled-coil-DIX1 (mCcd1) DIX domain L402A (protein)
chain: SSTCTKVLYFTDRSATPFMVNIPKRLGEVTLKDFKAAIDREGNHRYHFKALDPEFGTVKEEVFHDDDAIPGWEGKIVAWVEED

- other: DLS peak size (diameter) of homopolymer (mCcd1 DIX domain F397A): 5.5 nm
B4: mouse Coiled-coil-DIX1 (mCcd1) DIX domain F397A (protein)
chain: SSTCTKVLYATDRSLTPFMVNIPKRLGEVTLKDFKAAIDREGNHRYHFKALDPEFGTVKEEVFHDDDAIPGWEGKIVAWVEED

- other: DLS peak size (diameter) of homopolymer (mCcd1 DIX domain W466A): 8.2 nm
B5: mouse Coiled-coil-DIX1 (mCcd1) DIX domain W466A (protein)
chain: SSTCTKVLYFTDRSLTPFMVNIPKRLGEVTLKDFKAAIDREGNHRYHFKALDPEFGTVKEEVFHDDDAIPGWEGKIVAAVEED
